# Laboratory results: IntAct's records for PubMed 31000591
# B1: T-lymphocyte activation antigen CD80 (Mus musculus), Q00609 (parent)
# chain: MACNCQLMQDTPLLKFPCPRLILLFVLLIRLSQVSSDVDEQLSKSVKDKVLLPCRYNSPHEDESEDRIYWQKHDKVVLSVIAGKLKVWPEYKNRTLYDNTTYSLIILGLVLSDRGTYSCVVQKKERGTYEVKHLALVKLSIKADFSTPNITESGNPSADTKRITCFASGGFPKPRFSWLENGRELPGINTTISQDPESELYTISSQLDFNTTRNHTIKCLIKYGDAHVSEDFTWEKPPEDPPDSKNTLVLFGAGFGAVITVVVIVVIIKCFCKHRSCFRRNEASRETNNSLTFGPEEALAEQTVFL
# Variants of: B1
# Details: with pd1l1_mouse Cd274, Q9EP73
# Sequence of pd1l1_mouse Cd274, Q9EP73 (Q9EP73 whole entry): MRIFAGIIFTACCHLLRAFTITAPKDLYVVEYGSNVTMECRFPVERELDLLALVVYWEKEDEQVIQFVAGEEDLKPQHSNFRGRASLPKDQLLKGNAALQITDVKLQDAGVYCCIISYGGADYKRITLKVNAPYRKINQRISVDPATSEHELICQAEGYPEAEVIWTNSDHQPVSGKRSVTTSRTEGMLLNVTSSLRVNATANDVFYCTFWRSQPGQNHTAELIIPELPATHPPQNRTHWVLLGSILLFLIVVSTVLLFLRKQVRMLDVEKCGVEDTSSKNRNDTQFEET
row,effect of a mutation on the interaction,Variant
1,disrupting interaction strength,MACNCQLMQDTPLLKFPCPRLILLFVLLIRLSQVSSDVDEQLSKSVKDKVLLPCRYNSPHEDESEDRIYWQKHDKVVLSVIAGKLKVWPEYKNRTLYDNTTYSLIIEGLVLSDRGTYSCVVQKKERGTYEVKHLALVKLSIKADFSTPNITESGNPSADTKRITCFASGGFPKPRFSWLENGRELPGINTTISQDPESELYTISSQLDFNTTRNHTIKCLIKYGDAHVSEDFTWEKPPEDPPDSKNTLVLFGAGFGAVITVVVIVVIIKCFCKHRSCFRRNEASRETNNSLTFGPEEALAEQTVFL [L107E]
